The record followed here is article PMC11257539 (bioRxiv, 2024).

Non-standard residues stand in square brackets, D forms with d. No end group written: not given here. pS = N[C@@H](COP(=O)(O)O)C(=O)O

Usually Kd stands for a measure of binding affinity in units of concentration. What is called stoichiometry N is the number of molecules, sites or subunits per partner or assembly.

Experiment [1] deals with SNX27 PDZ domain (purified, BLI analyte and ITC cell) (human, UniProt Q96L92 43-136). As to the kind of experiment: ITC. (In general: Isothermal titration calorimetry measures the heat released or taken up as one component is titrated into another.)
The target in experiment [2] is T1, ESCPE-1 complex (SNX2/SNX6 heterodimer) (human, UniProt O60749;Q9UNH7).
T1 sequence 1: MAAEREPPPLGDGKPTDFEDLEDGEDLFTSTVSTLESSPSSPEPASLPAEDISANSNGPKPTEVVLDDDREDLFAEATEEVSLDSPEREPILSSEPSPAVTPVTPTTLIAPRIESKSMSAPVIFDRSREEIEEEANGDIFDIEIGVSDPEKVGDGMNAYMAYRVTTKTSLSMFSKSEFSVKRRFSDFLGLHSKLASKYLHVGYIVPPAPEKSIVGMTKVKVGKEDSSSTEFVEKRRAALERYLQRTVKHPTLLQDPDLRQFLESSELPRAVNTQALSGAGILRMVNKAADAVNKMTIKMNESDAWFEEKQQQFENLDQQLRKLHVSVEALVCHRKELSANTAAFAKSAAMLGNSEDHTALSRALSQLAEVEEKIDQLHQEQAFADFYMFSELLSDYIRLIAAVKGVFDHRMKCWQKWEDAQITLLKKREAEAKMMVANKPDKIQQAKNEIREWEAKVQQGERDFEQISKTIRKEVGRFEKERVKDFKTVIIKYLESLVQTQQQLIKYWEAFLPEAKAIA
T1 sequence 2: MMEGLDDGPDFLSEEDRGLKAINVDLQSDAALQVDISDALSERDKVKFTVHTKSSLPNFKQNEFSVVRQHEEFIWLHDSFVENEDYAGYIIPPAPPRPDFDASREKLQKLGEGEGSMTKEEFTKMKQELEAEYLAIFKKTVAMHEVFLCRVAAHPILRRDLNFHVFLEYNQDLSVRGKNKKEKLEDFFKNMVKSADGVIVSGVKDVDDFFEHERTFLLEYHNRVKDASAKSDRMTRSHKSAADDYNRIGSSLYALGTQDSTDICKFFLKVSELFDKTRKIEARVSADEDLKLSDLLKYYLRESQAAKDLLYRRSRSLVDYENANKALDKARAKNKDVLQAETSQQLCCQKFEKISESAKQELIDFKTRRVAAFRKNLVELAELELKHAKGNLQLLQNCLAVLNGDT
As to the kind of experiment: co-sedimentation.

In experiment [3] the target is SNX27 full-length (purified, as analyte in BLI and in liposome pelleting) (human, UniProt Q96L92 1-541). As to the kind of experiment: co-sedimentation.

Turning to E[pS]LESCF [PDZbm cargo peptide 5-HT4(a)R-pS-5 (EpSLESCF)], in experiment [1], the Kd was 1100 nM, the dH was -15.2 kcal/mol and the “stoichiometry N” value was found to be 1.1.

Regarding SNVSYKYSKVNKEEETDENETEWLMEEIQ [CI-MPR cargo motif (residues 2347-2375)], the binding result in experiment [2] was “binds”.

For YTVLHRGHHQELEKLPIHNDPESLESCF [His-tagged PDZbm cargo: C-terminal cytosolic tail of 5-HT4(a)R (residues 360-388)], the binding result in experiment [3] is on record as “binds”.
